Assay results published in patent US20230272064A1 (ACROIMMUNE BIOTECH, published 2023).
Where “and” joins values, the source holds several entries; their conditions need not be identical. Equal entries are not always repeated. Blank lines part the entries; values can stand above or below the binder they belong to.

Key:
[1] = biological target: T1, recombinant human TIGIT extracellular membrane protein with a C-terminal histidine tag (human, UniProt Q495A1 22-141); assay: competitive ELISA, TIGIT-His coated, competitor biotin-CD155-Fc
T1 construct: extracellular domain; Bought protein; two different product numbers are printed for it; also called TIGIT-His; TIGIT-his
T1 sequence (looked up): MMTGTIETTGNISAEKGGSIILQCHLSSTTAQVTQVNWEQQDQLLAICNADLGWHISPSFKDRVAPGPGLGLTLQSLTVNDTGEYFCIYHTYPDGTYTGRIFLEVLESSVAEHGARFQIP

B7-1 Fc fusion protein [2] = biological target: T2, B7-1 Fc fusion protein (Homo sapiens (Human), UniProt P33681 35-242); assay: ELISA, antigen coated at 2 µg/mL
T2 sequence: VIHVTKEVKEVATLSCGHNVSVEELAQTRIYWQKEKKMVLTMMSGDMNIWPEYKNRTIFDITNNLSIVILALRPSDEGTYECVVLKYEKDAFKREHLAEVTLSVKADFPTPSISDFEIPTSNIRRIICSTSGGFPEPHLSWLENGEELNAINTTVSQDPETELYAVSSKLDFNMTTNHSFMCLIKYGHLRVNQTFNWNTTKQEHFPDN

PD-1 Fc fusion protein [3] = biological target: T3, PD-1 Fc fusion protein (Homo sapiens (Human), UniProt Q15116 25-170); assay: ELISA, antigen coated at 2 µg/mL
BTLA Fc fusion protein [4] = biological target: T4, BTLA Fc fusion protein (Homo sapiens (Human), UniProt Q7Z6A9 31-157); assay: ELISA, antigen coated at 2 µg/mL
T4 sequence: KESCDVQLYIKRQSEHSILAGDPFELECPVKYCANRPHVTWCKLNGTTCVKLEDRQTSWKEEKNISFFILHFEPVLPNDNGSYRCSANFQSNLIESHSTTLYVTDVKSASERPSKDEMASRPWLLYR

CD28 Fc fusion protein [5] = biological target: T5, CD28 Fc fusion protein (Homo sapiens (Human), UniProt P10747 19-152); assay: ELISA, antigen coated at 2 µg/mL
B7-1 Fc fusion protein [6] = biological target: T2, B7-1 Fc fusion protein; assay: ELISA, antigen coated at 2 µg/mL, mAb at 1 µg/mL
CTLA4 Fc fusion protein = assay: ELISA, antigen coated at 2 µg/mL, mAb at 1 µg/mL
[7] = biological target: PV1- (coated antigen of Table 2); assay: ELISA, antigen coated at 2 µg/mL, mAb at 1 µg/mL
PD-L1 Fc fusion protein = assay: ELISA, antigen coated at 2 µg/mL, mAb at 1 µg/mL
PD-L2 Fc fusion protein = biological target: T6, PD-L2 Fc fusion protein; assay: ELISA, antigen coated at 2 µg/mL, mAb at 1 µg/mL
T6 sequence (Q9BQ51 whole entry, species assumed, looked up): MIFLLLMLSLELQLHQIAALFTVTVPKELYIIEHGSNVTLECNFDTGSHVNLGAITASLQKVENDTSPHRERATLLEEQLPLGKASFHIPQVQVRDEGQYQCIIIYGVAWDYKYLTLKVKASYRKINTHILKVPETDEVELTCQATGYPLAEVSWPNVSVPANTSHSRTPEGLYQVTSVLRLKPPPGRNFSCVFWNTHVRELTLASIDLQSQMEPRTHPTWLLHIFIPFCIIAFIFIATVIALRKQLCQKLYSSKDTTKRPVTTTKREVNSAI

CD3 Fc fusion protein = assay: ELISA, antigen coated at 2 µg/mL, mAb at 1 µg/mL
Sirpa Fc fusion protein = assay: ELISA, antigen coated at 2 µg/mL, mAb at 1 µg/mL
PD-1 Fc fusion protein [8] = biological target: T3, PD-1 Fc fusion protein; assay: ELISA, antigen coated at 2 µg/mL, mAb at 1 µg/mL
BTLA Fc fusion protein [9] = biological target: T4, BTLA Fc fusion protein; assay: ELISA, antigen coated at 2 µg/mL, mAb at 1 µg/mL
[10] = biological target: T1, recombinant human TIGIT extracellular …; assay: ELISA, antigen coated at 2 µg/mL, mAb at 1 µg/mL
[11] = biological target: PD1H (PD2) Fc fusion protein; assay: ELISA, antigen coated at 2 µg/mL, mAb at 1 µg/mL
CD28 Fc fusion protein [12] = biological target: T5, CD28 Fc fusion protein; assay: ELISA, antigen coated at 2 µg/mL, mAb at 1 µg/mL
[13] = biological target: T1, recombinant human TIGIT extracellular …; assay: competitive ELISA, TIGIT-His coated, competitor biotin-CD155-Fc; average of samples #2 and #4
[14] = biological target: T7, mouse TIGIT on C57/B6 wild-type mouse lymphocytes (mouse, UniProt P86176 29-249); assay: flow cytometry on peripheral blood lymphocytes of a wild-type C57 mouse, 33D2 hybridoma supernatant, FITC rabbit anti-mouse IgG, PE anti-mouse CD3e
T7 construct: whole, on cells
T7 sequence (looked up): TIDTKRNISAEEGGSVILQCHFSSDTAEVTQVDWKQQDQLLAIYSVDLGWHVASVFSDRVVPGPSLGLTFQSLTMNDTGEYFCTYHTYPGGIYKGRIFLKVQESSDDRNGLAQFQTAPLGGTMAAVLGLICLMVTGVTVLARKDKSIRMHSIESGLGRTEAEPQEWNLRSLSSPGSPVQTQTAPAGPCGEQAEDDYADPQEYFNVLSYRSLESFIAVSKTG

[15] = biological target: T1, recombinant human TIGIT extracellular …; assay: BLI (Fortebio-OCTET RED96), mAb captured on FAB2G sensor, TIGIT-His monomer as analyte, global fit, monovalent binding

T5 sequence (P10747 19-152 limits assumed): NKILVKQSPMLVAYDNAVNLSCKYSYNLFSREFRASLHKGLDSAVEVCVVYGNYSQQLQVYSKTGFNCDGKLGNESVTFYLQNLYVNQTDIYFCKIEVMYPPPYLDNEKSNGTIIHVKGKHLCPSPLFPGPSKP
T3 sequence (Q15116 25-170 limits assumed): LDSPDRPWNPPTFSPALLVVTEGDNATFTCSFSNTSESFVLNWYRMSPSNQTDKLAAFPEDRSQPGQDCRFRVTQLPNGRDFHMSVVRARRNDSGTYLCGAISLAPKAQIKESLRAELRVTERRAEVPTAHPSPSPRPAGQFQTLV
PD-L1 Fc fusion protein, sequence (Q9NZQ7 whole entry, the tested form may be a part): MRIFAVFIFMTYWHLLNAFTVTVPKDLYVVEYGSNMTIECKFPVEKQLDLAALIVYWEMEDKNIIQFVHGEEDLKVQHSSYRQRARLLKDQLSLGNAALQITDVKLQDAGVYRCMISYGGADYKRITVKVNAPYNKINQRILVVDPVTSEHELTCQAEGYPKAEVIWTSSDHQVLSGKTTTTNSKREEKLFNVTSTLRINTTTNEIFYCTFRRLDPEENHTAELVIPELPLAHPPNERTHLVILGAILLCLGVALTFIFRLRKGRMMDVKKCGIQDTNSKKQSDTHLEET
Sirpa Fc fusion protein, sequence (P78324 whole entry, the tested form may be a part): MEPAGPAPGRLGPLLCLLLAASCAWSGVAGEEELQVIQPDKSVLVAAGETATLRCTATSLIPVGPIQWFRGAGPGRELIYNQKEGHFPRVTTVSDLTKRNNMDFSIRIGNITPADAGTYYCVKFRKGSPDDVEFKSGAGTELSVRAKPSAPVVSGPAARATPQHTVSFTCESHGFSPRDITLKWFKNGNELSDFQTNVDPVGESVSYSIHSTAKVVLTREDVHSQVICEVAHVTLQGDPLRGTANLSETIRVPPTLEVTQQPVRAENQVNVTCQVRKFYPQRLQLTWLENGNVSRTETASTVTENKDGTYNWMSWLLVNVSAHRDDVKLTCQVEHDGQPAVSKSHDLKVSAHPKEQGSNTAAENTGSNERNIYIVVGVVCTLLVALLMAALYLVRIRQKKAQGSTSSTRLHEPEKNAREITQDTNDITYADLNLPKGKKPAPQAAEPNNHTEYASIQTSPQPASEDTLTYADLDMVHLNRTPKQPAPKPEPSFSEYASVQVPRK
CTLA4 Fc fusion protein, sequence (P16410 36-161): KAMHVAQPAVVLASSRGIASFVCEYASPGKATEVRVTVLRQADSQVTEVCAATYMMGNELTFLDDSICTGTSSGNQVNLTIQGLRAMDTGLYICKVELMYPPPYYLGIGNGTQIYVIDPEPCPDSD

- binding result (B7-1 Fc fusion protein [2]): no binding (tested: 1 µg/mL)
- binding result (PD-1 Fc fusion protein [3]): no binding (tested: 1 µg/mL)
- binding result (BTLA Fc fusion protein [4]): no binding (tested: 1 µg/mL)
- binding result (CD28 Fc fusion protein [5]): no binding (tested: 1 µg/mL)
- OD at 495 nm (B7-1 Fc fusion protein [6]): 0.03 OD
- OD at 495 nm (CTLA4 Fc fusion protein): 0.02 OD
- OD at 495 nm [7]: 0.05 OD
- OD at 495 nm (PD-L1 Fc fusion protein): 0 OD
- OD at 495 nm (PD-L2 Fc fusion protein): 0.04 OD
- OD at 495 nm (CD3 Fc fusion protein): 0.01 OD
- OD at 495 nm (Sirpa Fc fusion protein): 0.01 OD
- OD at 495 nm (PD-1 Fc fusion protein [8]): 0.01 OD
- OD at 495 nm (BTLA Fc fusion protein [9]): 0.01 OD
- OD at 495 nm [10]: 1.01 OD
- OD at 495 nm [11]: 0.01 OD
- OD at 495 nm (CD28 Fc fusion protein [12]): 0.03 OD
- IC50 [13]: 0.13 µg/mL and 0.867 nM
- binding result [14]: no binding
B1: murine anti-human TIGIT monoclonal antibody 33D2 (antibody, V domains shown)
VH: EVQLQQSGPDLVKPGASVKISCKASGYSFTGYYMHWVKQSHGKSLEWIGRVNPNNGDTRYNQKFKGKAILTVDKSSSTAYMELRSLTSEDSAVYYCAREGDYDERFAYWGQGTLVTVSA
VL: DIVMTQSHKFMSTSLGDRVSITCKASQDVGSTVAWYQQKPGQSPKLLIYWASTRHTGVPDRFTGSGSGTDFTLTITNVQSEDLADYFCQQYTSFPYTFGGGTKLEIK
notes: Mouse hybridoma antibody, used as purified protein (Protein G) or as hybridoma supernatant; also called m33D2; 33D2 mAb
- IC50 [1]: 0.135 µg/mL and 0.9 nM and 0.125 µg/mL and 0.833 nM

- Kd [15]: 0.843 nM
- koff [15]: 0.00023 s⁻¹
- kon [15]: 273000 M⁻¹ s⁻¹
B2: humanized antibody h33D2 (antibody, V domains shown)
VH: QVQLVQSGAEVKKPGASVKVSCKASGYSFTGYYMHWVRQAPGQGLEWMGRVNPNNGDTRYNQKFKGRVTMTRDTSISTAYMELSRLRSDDTVVYYCAREGDYDERFAYWGQGTLVTVSA
VL: DIQLTQSPSFLSASVGDRVTITCKASQDVGSTVAWYQQKPGKAPKLLIYWASTRHTGVPSRFSGSGSGTEFTLTISSLQPEDFATYYCQQYTSFPYTFGGGTKLEIK
notes: IgG4-kappa; human IgG4 heavy chain constant region with S228P in the hinge and human kappa light chain constant region; also called humanized 33D2 mAb; h33D2-light chain and h33D2-heave chain
